Experimental data from paper PMC10682391, “Discovery of a non-canonical prototype long-chain monoacylglycerol lipase through a structure-based endogenous reaction intermediate complex” (Nature Communications, 2023).

Columns and labels:
[1] = biological target: Tth MAG lipase (wild type), monoacylglycerol lipase from Thermoanaerobacter thermohydrosulfuricus (Thermoanaerobacter thermohydrosulfuricus); assay: SEC; size exclusion chromatography profile, Superdex 75 increase 3.2/300 column (Cytiva); dimeric and monomeric fractions
Tth MAG lipase [2] = biological target: T1, Tth MAG lipase (Thermoanaerobacter ethanolicus, UniProt A0A1G7VV58); assay: X-ray crystal structure; LC-MS of dissolved crystals; format: binding; conditions: endogenous ligand from E. coli; loosely coordinated tetrahedral intermediate at Ser113; SeMet, lysine-methylated protein; active site and lid tunnel
T1 construct: gene SAMN04244560_02687; full length, residues 1-259; E. coli; pETM-14, Ni-NTA purified (kinetics); pETBlue-1 (crystals, some SeMet and lysine-methylated); homodimer; Ser113/His233, HGF 35-37, FSE 77-79, lid 141-183

Tth MAG lipase [3] = biological target: T1, Tth MAG lipase; assay: X-ray crystal structure; format: binding; conditions: active site, bound by Glu43; native protein crystals, no glycerol added
Tth MAG lipase [4] = biological target: T1, Tth MAG lipase; assay: pNP ester hydrolysis, […] nm, Michaelis-Menten fit; format: biochemical; conditions: 50 mM Tris-HCl pH 8.0, 40 °C, 1 mg/ml gum arabic
purified protein [5] = substrate: CCCCCCCCCCCC(=O)Oc1ccc([N+](=O)[O-])cc1; assay: purified protein; format: biochemical, Thermoanaerobacter ethanolicus; conditions: 50 mM Tris-HCl pH 8.0, 40 °C, 1 mg/ml gum arabic
purified protein [6] = substrate: CCCCCCCCCCCCCC(=O)Oc1ccc([N+](=O)[O-])cc1; assay: purified protein; format: biochemical, Thermoanaerobacter ethanolicus; conditions: 50 mM Tris-HCl pH 8.0, 40 °C, 1 mg/ml gum arabic
purified protein [7] = substrate: CCCCCCCC(=O)Oc1ccc([N+](=O)[O-])cc1; assay: purified protein; format: biochemical, Thermoanaerobacter ethanolicus; conditions: 50 mM Tris-HCl pH 8.0, 40 °C, 1 mg/ml gum arabic
purified protein [8] = substrate: CCCC(=O)Oc1ccc([N+](=O)[O-])cc1; assay: purified protein; format: biochemical, Thermoanaerobacter ethanolicus; conditions: 50 mM Tris-HCl pH 8.0, 40 °C, 1 mg/ml gum arabic
purified protein [9] = substrate: CCCCCC(=O)Oc1ccc([N+](=O)[O-])cc1; assay: purified protein; format: biochemical, Thermoanaerobacter ethanolicus; conditions: 50 mM Tris-HCl pH 8.0, 40 °C, 1 mg/ml gum arabic

Tth MAG lipase (wild type), monoacylglycerol lipase from Thermoanaerobacter thermohydrosulfuricus (enzyme)
stoichiometry N [1]: 2

CCCCCCCCCCCCCCCCCC(=O)OCC(O)CO (stereo not shown) [glycerol monostearate, 2,3-dihydroxypropyloctadecanoate]
X-ray crystal structure; LC-MS of dissolved crystals (Tth MAG lipase [2]): we modeled a monostearate (C18) acyl ligand into the electron density of the active Tth

OCC(O)CO [glycerol]
X-ray crystal structure (Tth MAG lipase [3]): glycerol is found in a literally identical active site position in five out of six

CC(=O)Oc1ccc([N+](=O)[O-])cc1 [C2 pNP ester]
Km (Tth MAG lipase [4]): > 2000 µM

B1: Tth MAG lipase (Thermoanaerobacter ethanolicus subsp. thermohydrosulfuricus) (protein)
chain: MQKAVEITYNGKTLRGMMHLPDDVKGKVPMVIMFHGFTGNKVESHFIFVKMSRALEKVGIGSVRFDFYGSGESDGDFSEMTFSSELEDARQILKFVKEQPTTDPERIGLLGLSMGGAIAGIVAREYKDEIKALVLWAPAFNMPELIMHESVKQYGAIMEQLGFVDIGGHKLSKDFVEDISKLNIFELSKGYDKKVLIVHGTNDEAVEYKVSDRILKEVYGDNATRVTIENADHTFKSLEWEKKAIEESVEFFKKELLKG
notes: full length, residues 1-259; E. coli; pETM-14, Ni-NTA purified (kinetics); pETBlue-1 (crystals, some SeMet and lysine-methylated); homodimer; Ser113/His233, HGF 35-37, FSE 77-79, lid 141-183
Km (purified protein [5]): 100 µM
Km (purified protein [6]): 100 µM
Km (purified protein [7]): 4.9 ± 1.5 x 10^-1 mM
kcat (purified protein [7]): 5.5 ± 0.8 s⁻¹
Km (purified protein [8]): 7.1 ± 0.7 x 10^-1 mM
kcat (purified protein [8]): 8.6 ± 0.5 s⁻¹
Km (purified protein [9]): 3.6 ± 0.8 x 10^-1 mM
kcat (purified protein [9]): 4.9 ± 0.4 s⁻¹

B2: Tth MAG lipase (Thermoanaerobacter ethanolicus subsp. thermohydrosulfuricus; Y154A) (protein)
chain: MQKAVEITYNGKTLRGMMHLPDDVKGKVPMVIMFHGFTGNKVESHFIFVKMSRALEKVGIGSVRFDFYGSGESDGDFSEMTFSSELEDARQILKFVKEQPTTDPERIGLLGLSMGGAIAGIVAREYKDEIKALVLWAPAFNMPELIMHESVKQAGAIMEQLGFVDIGGHKLSKDFVEDISKLNIFELSKGYDKKVLIVHGTNDEAVEYKVSDRILKEVYGDNATRVTIENADHTFKSLEWEKKAIEESVEFFKKELLKG
notes: as for B1
Km (purified protein [9]): 4.8 ± 0.8 x 10^-1 mM
kcat (purified protein [9]): 5.7 ± 0.4 s⁻¹

B3: Tth MAG lipase (Thermoanaerobacter ethanolicus subsp. thermohydrosulfuricus; E43A) (protein)
chain: MQKAVEITYNGKTLRGMMHLPDDVKGKVPMVIMFHGFTGNKVASHFIFVKMSRALEKVGIGSVRFDFYGSGESDGDFSEMTFSSELEDARQILKFVKEQPTTDPERIGLLGLSMGGAIAGIVAREYKDEIKALVLWAPAFNMPELIMHESVKQYGAIMEQLGFVDIGGHKLSKDFVEDISKLNIFELSKGYDKKVLIVHGTNDEAVEYKVSDRILKEVYGDNATRVTIENADHTFKSLEWEKKAIEESVEFFKKELLKG
notes: as for B1
Km (purified protein [9]): 7.1 ± 3.0 x 10^-1 mM
kcat (purified protein [9]): 1.2 ± 0.3 x 10^1 s^-1
